Patent US10391148B2, “Method of prevention and inhibition of preterm labor” (Wayne State University, priority 2016, dated 2019)
“Also recorded” adds a separate entry of the source.

Each molecule was assayed on PIBF1 expression by human peripheral blood B cells (assay: PIBF1 expression by purified human peripheral blood IgD+ B cells after stimulation (qRT-PCR, Western Blot)). Conditions: 2 days (3 days in FIG. 4A), 100 ng/ml cytokine, 1 ng/ml TGF-β, 1 μM progesterone, vs medium control.
Format: cell-based
Description: Placentas and the attached chorioamniotic membranes were obtained after delivery. In each case, several random strips of the chorioamniotic membranes located at different regions of the choriodecidua were embedded in rolls in optimal cutting temperature (OCT) compound (Sakura Finetek 4583), frozen in liquid nitrogen and stored at −80° C. for immunofluorescence analysis. Choriodecidual tissues were scraped from the chorionic membranes that had blood clots removed, and digested with 0.2% (w/v) Clostridium histolyticum Collagenase V (Sigma-Aldrich C9263) in RPMI-1640 with 10% fetal bovine serum (Thermo Fisher Scientific 26140-079) at 37° C. with gentle agitation for 45 minutes. Cells released from the tissues were cleaned by being passed through a 100 μm cell strainer and centrifuged on a Ficoll gradient. Peripheral blood leukocytes of anonymous healthy donors after leukophoresis were obtained from the Southeast Michigan branch of American Red Cross. Peripheral blood mononuclear cells (PBMCs) were isolated using Histopaque-1077 (Sigma-Aldrich 10771) following the manufacturer's instruction. Red blood cells were lysed using an ammonium-chloride-potassium (ACK) lysing buffer (Thermo Fisher Scientific A1049201). IgD+B cells were purified from PBMCs by magnetic-activated cell sorting (MACS) with a biotinylated goat F(ab′)2 anti-human IgD antibody and anti-biotin magnetic microbeads (Miltenyi Biotec) as described in Chen, K., et al., Nat Immunol 10, 889-898 (2009). The purity of the IgD+B cells ranged from 92% to 99% as determined by flow cytometry with CDI9 staining. CD19+ B cells were similarly separated from PBMCs using a biotinylated mouse anti-human CD19 (clone HIB19) antibody, with purity ranging from 93% to 97% as determined by flow cytometry using a different clone (SJ25C1) of CD19 antibody.
Human PMBCs, IgD+B cells, CD19+ B cells or PBMCs depleted of CD19+ B cells were cultured in RPMI-1640 medium (Sigma-Aldrich R8578) supplemented with 2 mM L-glutamine, 2 mg/ml NaHCO3, 100 U/ml penicillin, 100 µg/ml streptomycin, […] amphotericin B and 10% FBS. Cells were stimulated with 100 ng/ml IL-33 (R&D 3625-IL-010 or Peprotech 200-33), 1 μM progesterone (Sigma-Aldrich P0130), IL-4 (Peprotech 200-04), IL-10 (Peprotech 200-10), IL-17A (Peprotech 200-17), IL-25 (R&D 1258-IL-025), IFN-γ (Peprotech 300-02), TGF-β (R&D 240-B-010/CF), TNF (210-TA-020) or TSLP (Peprotech 300-62). RNA or protein expression was analyzed after 2 days.
RNA was extracted from cells or tissues using TRIzol (Thermo Fisher Scientific 15596026). cDNA synthesis was performed using the Superscript III first strand synthesis system (Thermo Fisher Scientific 188080051) in a thermocycler (Bio-Rad T100). qRT-PCR was performed with Power SYBR Green PCR Master Mix (Thermo Fisher Scientific 4367660) in a StepOnePlus instrument (Applied Biosystems) using pairs of sense and anti-sense primers targeted at the genes of interest (Tables 2, 3).
Cells were pelleted and washed twice with cold PBS and lysed in a pH 8.0 protein extraction buffer containing 20 mM Tris-HCl, 150 mM NaCl, 1% IGEPAL CA-630 (Sigma-Aldrich 18896), 0.1% sodium dodecyl sulfate (SDS), 1 mM EDTA and protease and phosphatase inhibitor cocktail on ice for 30 minutes. For protein extraction from mouse uterus and human chorioamniotic membranes, the tissue was washed twice with PBS to remove blood and homogenized in the above protein extraction buffer with a tissue tearor (Biospec Products 985370), followed by 3 rounds of sonication at 30% maximum power for 5 seconds per round using a sonifier (Thermo Fisher Scientific Q500). Supernatants were collected after centrifugation, heated at 98° C. in an SDS buffer with 4% β-mecaptoethanol for 5 minutes to denature proteins. Proteins were resolved in 4-20% Bis-Tris gels (GenScript M42012) and transferred to 0.45 μm nitrocellulose membranes (Bio-Rad 1620115). […]

Row | Molecule | PIBF1 expression by human peripheral blood B cells (PIBF1 transcript fold change, Western Blot)
1 | CC(=O)[C@H]1CC[C@H]2[C@@H]3CCC4=CC(=O)CC[C@]4(C)[C@H]3CC[C@]12C [progesterone, reference compound] | known inducer of PIBF1
2 | TGF-β: cytokine, R&D 240-B-010/CF [reference compound] | had no effect; also recorded: do not induce
3 | TSLP: T helper type 2 cytokine, Peprotech 300-62 [reference compound] | only IL-33 induced PIBF1 expression; also recorded: do not induce
4 | IL-4: T helper type 2 cytokine, Peprotech 200-04 (protein, UniProt P05112 25-153, looked up) Interleukin-4: HKCDITLQEIIKTLNSLTEQKTLCTELTVTDIFAASKNTTEKETFCRAATVLRQFYSHHEKDTRCLGATAQQFHRHKQLIRFLKRLDRNLWGLAGLNSCPVKEANQSTLENFLERLKTIMREKYSKCSS | only IL-33 induced PIBF1 expression; also recorded: do not induce
5 | IL-33: interleukin 33 cytokine (R&D 3625-IL-010 or Peprotech 200-33); human IL-33 is SEQ ID NO: 5 (protein, listed as Homo sapiens) MKPKMKYSTNKISTAKWKNTASKALCFKLGKSQQKAKEVCPMYFMKLRSGLMIKKEACYFRRETTKRPSLKTGRKHKRHLVLAACQQQSTVECFAFGISGVQKYTRALHDSSITGISPITEYLASLSTYNDQSITFALEDESYEIYVEDLKKDEKKDKVLLSYYESQHPSNESGDGVDGKMLMVTLSPTKDFWLHANNKEHSVELHKCEKPLPDQAFFVLHNMHSNCVSFECKTDPGVFIGVKDNHLALIKVDSSENLCTENILFKLSET | promoted PIBF1 expression
6 | IL-25: T helper type 2 cytokine, R&D 1258-IL-025 (protein, UniProt Q9H293 33-177, looked up) Interleukin-25: YSHWPSCCPSKGQDTSEELLRWSTVPVPPLEPARPNRHPESCRASEDGPLNSRAISPWRYELDRDLNRLPQDLYHARCLCPHCVSLQTGSHMDPRGNSELLYHNQTVFYRRPCHGEKGTHKGYCLERRLYRVSLACVCVRPRVMG | only IL-33 induced PIBF1 expression; also recorded: do not induce
7 | IFN-γ: cytokine, Peprotech 300-02 (protein, UniProt P01579 24-161, looked up) Interferon gamma: QDPYVKEAENLKKYFNAGHSDVADNGTLFLGILKNWKEESDRKIMQSQIVSFYFKLFKNFKDDQSIQKSVETIKEDMNVKFFNSNKKKRDDFEKLTNYSVTDLNVQRKAIHELIQVMAELSPAAKTGKRKRSQMLFRG | had no effect; also recorded: do not induce
8 | IL-10: cytokine, Peprotech 200-10 (protein, UniProt P22301 19-178, looked up) Interleukin-10: SPGQGTQSENSCTHFPGNLPNMLRDLRDAFSRVKTFFQMKDQLDNLLLKESLLEDFKGYLGCQALSEMIQFYLEEVMPQAENQDPDIKAHVNSLGENLKTLRLRLRRCHRFLPCENKSKAVEQVKNAFNKLQEKGIYKAMSEFDIFINYIEAYMTMKIRN | had no effect; also recorded: do not induce
